# Data reported in the supplement of paper PMC5998384.
# Columns and labels:
# HeLa Kyoto [1] = experiment: thermal stability score vs G1/S (z-score of summed log2 fold changes over temperatures); higher = more thermally stable than in G1/S
# HeLa Kyoto [2] = experiment: melting temperature (median over replicates), in situ; higher = more thermally stable
# [3] = cell cycle stage: early G1 (4.5 h after nocodazole release)
# 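For melting temperature (median over replicates), in situ in this document: HeLa Kyoto cells synchronized by double thymidine or nocodazole block, proteins quantified by TMT10plex mass spectrometry, three independent biological replicates.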
# 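For thermal stability score vs G1/S (z-score of summed log2 fold changes over temperatures) in this document: synchronized HeLa Kyoto cells, proteins quantified by TMT10plex mass spectrometry, three biological replicates, mitosis taken 0.5 h after nocodazole release, G1/S directly after double thymidine block.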
Substance,thermal stability score (HeLa Kyoto [1]; [3]),thermal stability score (HeLa Kyoto [1]; cell cycle stage: mitosis),melting temperature (HeLa Kyoto [2]; cell cycle stage: mitosis) [°C],melting temperature (HeLa Kyoto [2]; cell cycle stage: G1/S) [°C]
MSGGDTRAAIARPRMAAAHGPVAPSSPEQVTLLPVQRSFFLPPFSGATPSTSLAESVLKVWHGAYNSGLLPQLMAQHSLAMAQNGAVPSEATKRDQNLKRGNWGNQIEFVLTSVGYAVGLGNVWRFPYLCYRNGGGAFMFPYFIMLIFCGIPLFFMELSFGQFASQGCLGVWRISPMFKGVGYGMMVVSTYIGIYYNVVICIAFYYFFSSMTHVLPWAYCNNPWNTHDCAGVLDASNLTNGSRPAALPSNLSHLLNHSLQRTSPSEEYWRLYVLKLSDDIGNFGEVRLPLLGCLGVSWLVVFLCLIRGVKSSGKVVYFTATFPYVVLTILFVRGVTLEGAFDGIMYYLTPQWDKILEAKVWGDAASQIFYSLGCAWGGLITMASYNKFHNNCYRDSVIISITNCATSVYAGFVIFSILGFMANHLGVDVSRVADHGPGLAFVAYPEALTLLPISPLWSLLFFFMLILLGLGTQFCLLETLVTAIVDEVGNEWILQKKTYVTLGVAVAGFLLGIPLTSQAGIYWLLLMDNYAASFSLVVISCIMCVAIMYIYGHRNYFQDIQMMLGFPPPLFFQICWRFVSPAIIFFILVFTVIQYQPITYNHYQYPGWAVAIGFLMALSSVLCIPLYAMFRLCRTDGDTLLQRLKNATKPSRDWGPALLEHRTGRYAPTIAPSPEDGFEVQPLHPDKAQIPIVGSNGSSRLQDSRI [SLC6A9],-0.03,1.01,–,–
SPG11,-0.413,-0.459,–,–
MGAALGTGTRLAPWPGRACGALPRWTPTAPAQGCHSKPGPARPVPLKKRGYDVTRNPHLNKGMAFTLEERLQLGIHGLIPPCFLSQDVQLLRIMRYYERQQSDLDKYIILMTLQDRNEKLFYRVLTSDVEKFMPIVYTPTVGLACQHYGLTFRRPRGLFITIHDKGHLATMLNSWPEDNIKAVVVTDGERILGLGDLGCYGMGIPVGKLALYTACGGVNPQQCLPVLLDVGTNNEELLRDPLYIGLKHQRVHGKAYDDLLDEFMQAVTDKFGINCLIQFEDFANANAFRLLNKYRNKYCMFNDDIQGTASVAVAGILAALRITKNKLSNHVFVFQGAGEAAMGIAHLLVMALEKEGVPKAEATRKIWMVDSKGLIVKGRSHLNHEKEMFAQDHPEVNSLEEVVRLVKPTAIIGVAAIAGAFTEQILRDMASFHERPIIFALSNPTSKAECTAEKCYRVTEGRGIFASGSPFKSVTLEDGKTFIPGQGNNAYVFPGVALGVIAGGIRHIPDEIFLLTAEQIAQEVSEQHLSQGRLYPPLSTIRDVSLRIAIKVLDYAYKHNLASYYPEPKDKEAFVRSLVYTPDYDSFTLDSYTWPKEAMNVQTV [ME3],-5.4,-4.14,–,–
MNSGVAMKYGNDSSAELSELHSAALASLKGDIVELNKRLQQTERERDLLEKKLAKAQCEQSHLMREHEDVQERTTLRYEERITELHSVIAELNKKIDRLQGTTIREEDEYSELRSELSQSQHEVNEDSRSMDQDQTSVSIPENQSTMVTADMDNCSDLNSELQRVLTGLENVVCGRKKSSCSLSVAEVDKHIEQLTTASEHCDLAIKTVEEIEGVLGRDLYPNLAEERSRWEKELAGLREENESLTAMLCSKEEELNRTKATMNAIREERDRLRRRVRELQTRLQSVQATGPSSPGRLTSTNRPINPSTGELSTSSSSNDIPIAKIAERVKLSKTRSESSSSDRPVLGSEISSIGVSSSVAEHLAHSLQDCSNIQEIFQTLYSHGSAISESKIREFEVETERLNSRIEHLKSQNDLLTITLEECKSNAERMSMLVGKYESNATALRLALQYSEQCIEAYELLLALAESEQSLILGQFRAAGVGSSPGDQSGDENITQMLKRAHDCRKTAENAAKALLMKLDGSCGGAFAVAGCSVQPWESLSSNSHTSTTSSTASSCDTEFTKEDEQRLKDYIQQLKNDRAAVKLTMLELESIHIDPLSYDVKPRGDSQRLDLENAVLMQELMAMKEEMAELKAQLYLLEKEKKALELKLSTREAQEQAYLVHIEHLKSEVEEQKEQRMRSLSSTSSGSKDKPGKECADAASPALSLAELRTTCSENELAAEFTNAIRREKKLKARVQELVSALERLTKSSEIRHQQSAEFVNDLKRANSNLVAAYEKAKKKHQNKLKKLESQMMAMVERHETQVRMLKQRIALLEEENSRPHTNETSL [MCC],0.157,-0.438,–,–
KIAA0100,1.31,1.36,–,–
HRNR,5.84,1.12,–,–
MEPGTNSFRVEFPDFSSTILQKLNQQRQQGQLCDVSIVVQGHIFRAHKAVLAASSPYFCDQVLLKNSRRIVLPDVMNPRVFENILLSSYTGRLVMPAPEIVSYLTAASFLQMWHVVDKCTEVLEGNPTVLCQKLNHGSDHQSPSSSSYNGLVESFELGSGGHTDFPKAQELRDGENEEESTKDELSSQLTEHEYLPSNSSTEHDRLSTEMASQDGEEGASDSAEFHYTRPMYSKPSIMAHKRWIHVKPERLEQACEGMDVHATYDEHQVTESINTVQTEHTVQPSGVEEDFHIGEKKVEAEFDEQADESNYDEQVDFYGSSMEEFSGERSDGNLIGHRQEAALAAGYSENIEMVTGIKEEASHLGFSATDKLYPCQCGKSFTHKSQRDRHMSMHLGLRPYGCGVCGKKFKMKHHLVGHMKIHTGIKPYECNICAKRFMWRDSFHRHVTSCTKSYEAAKAEQNTTEAN [ZBTB43],–,–,55,–
MKVLGRSFFWVLFPVLPWAVQAVEHEEVAQRVIKLHRGRGVAAMQSRQWVRDSCRKLSGLLRQKNAVLNKLKTAIGAVEKDVGLSDEEKLFQVHTFEIFQKELNESENSVFQAVYGLQRALQGDYKDVVNMKESSRQRLEALREAAIKEETEYMELLAAEKHQVEALKNMQHQNQSLSMLDEILEDVRKAADRLEEEIEEHAFDDNKSVKGVNFEAVLRVEEEEANSKQNITKREVEDDLGLSMLIDSQNNQYILTKPRDSTIPRADHHFIKDIVTIGMLSLPCGWLCTAIGLPTMFGYIICGVLLGPSGLNSIKSIVQVETLGEFGVFFTLFLVGLEFSPEKLRKVWKISLQGPCYMTLLMIAFGLLWGHLLRIKPTQSVFISTCLSLSSTPLVSRFLMGSARGDKEGDIDYSTVLLGMLVTQDVQLGLFMAVMPTLIQAGASASSSIVVEVLRILVLIGQILFSLAAVFLLCLVIKKYLIGPYYRKLHMESKGNKEILILGISAFIFLMLTVTELLDVSMELGCFLAGALVSSQGPVVTEEIATSIEPIRDFLAIVFFASIGLHVFPTFVAYELTVLVFLTLSVVVMKFLLAALVLSLILPRSSQYIKWIVSAGLAQVSEFSFVLGSRARRAGVISREVYLLILSVTTLSLLLAPVLWRAAITRCVPRPERRSSL [TMCO3],–,–,52.9,54.4
MGEFKVHRVRFFNYVPSGIRCVAYNNQSNRLAVSRTDGTVEIYNLSANYFQEKFFPGHESRATEALCWAEGQRLFSAGLNGEIMEYDLQALNIKYAMDAFGGPIWSMAASPSGSQLLVGCEDGSVKLFQITPDKIQFERNFDRQKSRILSLSWHPSGTHIAAGSIDYISVFDVKSGSAVHKMIVDRQYMGVSKRKCIVWGVAFLSDGTIISVDSAGKVQFWDSATGTLVKSHLIANADVQSIAVADQEDSFVVGTAEGTVFHFQLVPVTSNSSEKQWVRTKPFQHHTHDVRTVAHSPTALISGGTDTHLVFRPLMEKVEVKNYDAALRKITFPHRCLISCSKKRQLLLFQFAHHLELWRLGSTVATGKNGDTLPLSKNADHLLHLKTKGPENIICSCISPCGSWIAYSTVSRFFLYRLNYEHDNISLKRVSKMPAFLRSALQILFSEDSTKLFVASNQGALHIVQLSGGSFKHLHAFQPQSGTVEAMCLLAVSPDGNWLAASGTSAGVHVYNVKQLKLHCTVPAYNFPVTAMAIAPNTNNLVIAHSDQQVFEYSIPDKQYTDWSRTVQKQGFHHLWLQRDTPITHISFHPKRPMHILLHDAYMFCIIDKSLPLPNDKTLLYNPFPPTNESDVIRRRTAHAFKISKIYKPLLFMDLLDERTLVAVERPLDDIIAQLPPPIKKKKFGT [UTP4],–,–,52.3,54.3
MARRRRRACIALFLVLLFAFGTLMGLRTLKAPDGLPALGPGLELAPFERRPEGAPAPAARAPAAPAAPPPPPPPPRTADPGGSPGPAPAEAEPAPVQSLRVYSDLHAFYYSWYGSPRREGHYIHWDHVMVPHWDPKISASYPRGRHSPPDDLGSSFYPELGPYSSRDPEVLREHMTQLKEAAIGVLVLSWYPPGMADDNGEPSDDLVPAILDTAHQYSIQVAFHIQPYKGRDDITVHDNIKYIIDTYGSHGAFYRYKNSMGKSLPLFYIYDSYLTSPEAWAHLLTPNGPHSIRNTPYDGVFIALLVEEGHTHDILAAGFDGMYTYFASNGFSFGSSHQNWKAVKNFCDANNLMFIPSVGPGYIDTSIRPWNNHNTRNRVNGKYYETALQAALTVRPEIVSITSFNEWHEGTQIEKAIPKKTPTRLYLDYLPHQPSLYLELTRRWAEHFIKEKEQWLM [MANEAL],–,–,54.1,–
MAMEGYWRFLALLGSALLVGFLSVIFALVWVLHYREGLGWDGSALEFNWHPVLMVTGFVFIQGIAIIVYRLPWTWKCSKLLMKSIHAGLNAVAAILAIISVVAVFENHNVNNIANMYSLHSWVGLIAVICYLLQLLSGFSVFLLPWAPLSLRAFLMPIHVYSGIVIFGTVIATALMGLTEKLIFSLRDPAYSTFPPEGVFVNTLGLLILVFGALIFWIVTRPQWKRPKEPNSTILHPNGGTEQGARGSMPAYSGNNMDKSDSELNSEVAARKRNLALDEAGQRSTM [CYBRD1],–,–,53.6,–
MPSETPQAEVGPTGCPHRSGPHSAKGSLEKGSPEDKEAKEPLWIRPDAPSRCTWQLGRPASESPHHHTAPAKSPKILPDILKKIGDTPMVRINKIGKKFGLKCELLAKCEFFNAGGSVKDRISLRMIEDAERDGTLKPGDTIIEPTSGNTGIGLALAAAVRGYRCIIVMPEKMSSEKVDVLRALGAEIVRTPTNARFDSPESHVGVAWRLKNEIPNSHILDQYRNASNPLAHYDTTADEILQQCDGKLDMLVASVGTGGTITGIARKLKEKCPGCRIIGVDPEGSILAEPEELNQTEQTTYEVEGIGYDFIPTVLDRTVVDKWFKSNDEEAFTFARMLIAQEGLLCGGSAGSTVAVAVKAAQELQEGQRCVVILPDSVRNYMTKFLSDRWMLQKGFLKEEDLTEKKPWWWHLRVQELGLSAPLTVLPTITCGHTIEILREKGFDQAPVVDEAGVILGMVTLGNMLSSLLAGKVQPSDQVGKVIYKQFKQIRLTDTLGRLSHILEMDHFALVVHEQIQYHSTGKSSQRQMVFGVVTAIDLLNFVAAQERDQK [CBS],–,–,55.8,55
MDHSHHMGMSYMDSNSTMQPSHHHPTTSASHSHGGGDSSMMMMPMTFYFGFKNVELLFSGLVINTAGEMAGAFVAVFLLAMFYEGLKIARESLLRKSQVSIRYNSMPVPGPNGTILMETHKTVGQQMLSFPHLLQTVLHIIQVVISYFLMLIFMTYNGYLCIAVAAGAGTGYFLFSWKKAVVVDITEHCH [SLC31A1],–,–,54.9,56.5
MSAARESHPHGVKRSASPDDDLGSSNWEAADLGNEERKQKFLRLMGAGKKEHTGRLVIGDHKSTSHFRTGEEDKKINEELESQYQQSMDSKLSGRYRRHCGLGFSEVEDHDGEGDVAGDDDDDDDDSPDPESPDDSESDSESEKEESAEELQAAEHPDEVEDPKNKKDAKSNYKMMFVKSSGS [C11ORF58],–,–,–,55
MNCEREQLRGNQEAAAAPDTMAQPYASAQFAPPQNGIPAEYTAPHPHPAPEYTGQTTVPEHTLNLYPPAQTHSEQSPADTSAQTVSGTATQTDDAAPTDGQPQTQPSENTENKSQPKRLHVSNIPFRFRDPDLRQMFGQFGKILDVEIIFNERGSKGFGFVTFENSADADRAREKLHGTVVEGRKIEVNNATARVMTNKKTVNPYTNGWKLNPVVGAVYSPEFYAGTVLLCQANQEGSSMYSAPSSLVYTSAMPGFPYPAATAAAAYRGAHLRGRGRTVYNTFRAAAPPPPIPAYGGVVYQDGFYGADIYGGYAAYRYAQPTPATAAAYSDSYGRVYAADPYHHALAPAPTYGVGAMNAFAPLTDAKTRSHADDVGLVLSSLQASIYRGGYNRFAPY [RBFOX1],–,–,–,49.8
